This is an account of results in US20230340152A1 (published 2023).

As a reminder, the koff is a measure of how fast the partners let go of each other. A higher koff goes with a short-lived complex. Usually kon stands for the second-order rate constant of association. The low end stands for slower complex formation, the high end for faster complex formation. One may read the Kd as the free concentration of one partner at which half of the binding sites on the other are occupied at equilibrium, for simple one-to-one binding. Low values mean tighter binding, high ones weaker binding.

What all share (assay): SPR (ProteOn), CD73 variant immobilized; 2:1 fit
Assay [1] deals with T1, Human CD73 N185G, His-tagged (human, UniProt P21589 27-549).
T1 sequence: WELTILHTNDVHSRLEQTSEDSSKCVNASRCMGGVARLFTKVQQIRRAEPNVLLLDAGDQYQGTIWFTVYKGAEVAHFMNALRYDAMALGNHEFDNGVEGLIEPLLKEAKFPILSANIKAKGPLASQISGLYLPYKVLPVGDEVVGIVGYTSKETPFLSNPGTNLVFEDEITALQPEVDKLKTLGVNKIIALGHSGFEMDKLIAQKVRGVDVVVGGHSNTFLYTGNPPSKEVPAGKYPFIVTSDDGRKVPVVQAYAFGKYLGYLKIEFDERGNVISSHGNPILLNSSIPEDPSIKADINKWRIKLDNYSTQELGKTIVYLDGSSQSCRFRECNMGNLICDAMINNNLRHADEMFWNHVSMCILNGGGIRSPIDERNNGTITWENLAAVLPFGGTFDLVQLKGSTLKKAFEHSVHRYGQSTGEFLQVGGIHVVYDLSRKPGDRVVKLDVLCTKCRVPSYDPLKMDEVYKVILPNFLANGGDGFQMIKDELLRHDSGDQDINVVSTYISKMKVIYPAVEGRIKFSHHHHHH
The method, then:
(§1) Binding of MEDI9447 to wild-type and mutant CD73 proteins was measured by surface plasmon resonance (SPR) using a ProteOn instrument (BioRad). CD73 crude cell supernatant protein samples were diluted to 3 µg/ml in PBS, 0.005% Tween-20, pH 7.4 (BioRad) and immobilized to ~400 RU on a HTG tris-NTA sensor chip (BioRad) pre-activated with 10 mM NiSO₄, 10 mM MES, pH 6.0 (BioRad). An equivalently diluted crude cell supernatant sample from non-transfected cells was included as a reference channel control. Sensorgrams were recorded by flowing two-fold dilutions of MEDI9447 prepared in PBS, 0.005% Tween-20, pH 7.4, ranging from 5 nM to 0.31 nM. […] Antibody binding was measured at a flow rate of 100 µL/min with a 3 min association phase and 20 min dissociation phase. The sensor chip surface was regenerated between each run by an 800 s injection of 300 mM EDTA, pH 8.5 (BioRad) at a flow rate of 30 µL/min. Binding kinetics were analyzed using the ProteOn data analysis software. Double referencing was performed and, unless noted otherwise, a 1:1 Langmuir binding model was utilized to fit the data. Some CD73 variants containing mutations within the amino acid region 171-188 fit poorly to a 1:1 model (i.e., Chi² values >10% of Rmax). Where noted, these variants were fit with a heterogenous antigen (2:1) model. […] Due to the assay format (antigen immobilized) and the dimeric state of CD73, KD values may be exaggerated due to avidity effects. However, it is not anticipated that this impacts ranking of MEDI9447 binding to the different CD73 variants.

For another assay, the target named is T2, HDX_E2 CD73 chimera (human; chicken, UniProt P21589 27-553).
T2 construct: also called KO_182-187
T2 chain: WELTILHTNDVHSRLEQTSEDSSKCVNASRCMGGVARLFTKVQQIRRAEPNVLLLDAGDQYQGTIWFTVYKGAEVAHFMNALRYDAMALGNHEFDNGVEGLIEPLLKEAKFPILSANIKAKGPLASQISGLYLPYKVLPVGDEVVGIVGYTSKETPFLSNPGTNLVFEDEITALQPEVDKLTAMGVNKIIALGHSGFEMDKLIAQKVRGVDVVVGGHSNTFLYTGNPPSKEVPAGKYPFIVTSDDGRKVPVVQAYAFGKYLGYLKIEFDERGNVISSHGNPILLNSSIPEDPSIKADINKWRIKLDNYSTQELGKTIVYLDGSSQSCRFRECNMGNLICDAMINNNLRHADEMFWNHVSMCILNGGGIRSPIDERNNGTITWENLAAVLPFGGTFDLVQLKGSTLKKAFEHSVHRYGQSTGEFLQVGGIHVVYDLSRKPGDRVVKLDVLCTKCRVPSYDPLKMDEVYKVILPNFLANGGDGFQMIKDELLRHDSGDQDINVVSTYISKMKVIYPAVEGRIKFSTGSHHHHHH
How it is done:
as §1

Another assay deals with T3, HDX_E1+E2 CD73 chimera (human; chicken, UniProt P21589 27-553).
T3 chain: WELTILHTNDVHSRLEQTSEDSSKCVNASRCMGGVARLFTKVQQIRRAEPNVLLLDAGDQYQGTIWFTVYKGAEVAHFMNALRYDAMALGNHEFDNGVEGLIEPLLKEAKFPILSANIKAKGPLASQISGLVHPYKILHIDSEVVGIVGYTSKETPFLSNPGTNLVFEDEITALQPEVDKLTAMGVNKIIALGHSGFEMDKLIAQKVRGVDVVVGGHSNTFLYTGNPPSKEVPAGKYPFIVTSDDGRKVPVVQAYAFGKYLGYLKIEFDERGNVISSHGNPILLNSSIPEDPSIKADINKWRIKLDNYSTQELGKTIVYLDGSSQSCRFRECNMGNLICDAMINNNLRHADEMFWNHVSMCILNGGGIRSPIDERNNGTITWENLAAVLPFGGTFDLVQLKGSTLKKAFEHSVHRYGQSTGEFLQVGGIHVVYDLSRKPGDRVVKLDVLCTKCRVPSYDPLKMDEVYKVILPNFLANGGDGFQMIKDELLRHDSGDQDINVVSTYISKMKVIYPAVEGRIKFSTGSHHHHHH
How it is done: as §1

B1: MEDI9447 (antibody, human IgG1, lambda, V domains shown)
VH: EVQLLESGGGLVQPGGSLRLSCAASGFTFSSYAYSWVRQAPGKGLEWVSAISGSGGRTYYADSVKGRFTISRDNSKNTLYLQMNSLRAEDTAVYYCARLGYGRVDEWGRGTLVTVSS
VL: QSVLTQPPSASGTPGQRVTISCSGSLSNIGRNPVNWYQQLPGTAPKLLIYLDNLRLSGVPDRFSGSKSGTSASLAISGLQSEDEADYYCATWDDSHPGWTFGGGTKLTVLG
notes: Human IgG1-TM (L234F, L235E, P331S), lambda light chain; also called clone 10.3 antibody; 73combo3
Take B1: in assay [1], the koff came out at 0.000245 s⁻¹ and the kon was 9.11e+06 M⁻¹ s⁻¹. In the assay with HDX_E2 CD73 chimera, this molecule gave a Kd of 2.83 nM, a koff of 0.0162 s⁻¹ and a kon of 5.73e+06 M⁻¹ s⁻¹. Besides, in the assay with HDX_E1+E2 CD73 chimera, the Kd turned out to be 4.43 nM, the koff was 0.0211 s⁻¹ and the kon amounted to 4.76e+06 M⁻¹ s⁻¹.
